Where a chain is given by its changes, count along the chain named.

B1: P5 -leu:P3 -leu: C1 inhibitor mutein with Leu at position 440 (P5) and Leu at position 442 (P3) (protein, UniProt P05155 23-500, looked up, variant I440L V442L)
Plasma protease C1 inhibitor: NPNATSSSSQDPESLQDRGEGKVATTVISKMLFVEPILEVSSLPTTNSTTNSATKITANTTDEPTTQPTTEPTTQPTIQPTQPTTQLPTDSPTQPTTGSFCPGPVTLCSDLESHSTEAVLGDALVDFSLKLYHAFSAMKKVETNMAFSPFSIASLLTQVLLGAGENTKTNLESILSYPKDFTCVHQALKGFTTKGVTSVSQIFHSPDLAIRDTFVNASRTLYSSSPRVLSNNSDANLELINTWVAKNTNNKISRLLDSLPSDTRLVLLNAIYLSAKWKTTFDPKKTRMEPFHFKNSVIKVPMMNSKKYPVAHFIDQTLKAKVGQLQLSHNLSLVILVPQNLKHRLEDMEQALSPSVFKAIMEKLEMSKFQPTLLTLPRIKVTTSQDMLSIMEKLEFFDFSYDLNLCGLTEDPDLQVSAMQHQTVLELTETGVEAAAASALSLARTLLVFEVQQPFLFVLWDQQHKFPVFMGRVYDPRA
B2: P5 -leu:P3 -ala: C1 inhibitor mutein with Leu at position 440 (P5) and Ala at position 442 (P3) (protein, UniProt P05155 23-500, looked up, variant I440L V442A)
Plasma protease C1 inhibitor: B1 Plasma protease C1 inhibitor with L442A
B3: P3-arg: C1 inhibitor mutein with Arg substituted for Val at position 442 (P3) (protein, UniProt P05155 23-500, looked up, variant V442R)
Plasma protease C1 inhibitor: B1 Plasma protease C1 inhibitor with L440I, L442R
B4: P3-leu: C1 inhibitor mutein with Leu substituted for Val at position 442 (P3) (protein, UniProt P05155 23-500, looked up, variant V442L)
Plasma protease C1 inhibitor: B1 Plasma protease C1 inhibitor with L440I
B5: P3-gly: C1 inhibitor mutein with Gly substituted for Val at position 442 (P3) (protein, UniProt P05155 23-500, looked up, variant V442G)
Plasma protease C1 inhibitor: B1 Plasma protease C1 inhibitor with L440I, L442G
B6: wild-type: wild type C1 inhibitor, plasma glycoprotein serine protease inhibitor with isoleucine and valine at positions 440 and 442 (protein, UniProt P05155 23-500, looked up)
Plasma protease C1 inhibitor: B1 Plasma protease C1 inhibitor with L440I, L442V
B7: P3-ala: C1 inhibitor mutein with Ala substituted for Val at position 442 (P3) (protein, UniProt P05155 23-500, looked up, variant V442A)
Plasma protease C1 inhibitor: B1 Plasma protease C1 inhibitor with L440I, L442A
B8: P3-thr: C1 inhibitor mutein with Thr substituted for Val at position 442 (P3) (protein, UniProt P05155 23-500, looked up, variant V442T)
Plasma protease C1 inhibitor: B1 Plasma protease C1 inhibitor with L440I, L442T

In one test the test system is HNE. In words: inactivation of C1 inhibitor muteins by elastase (protease sensitivity). In kind it is biochemical. The settings on record: neutrophil elastase as the source of protease; compared to wild type C1 inhibitor. The text has this: (§1) FIG. 2 presents a generalized assay screening format for determining both the inhibitory (complex formation) or protease sensitivity (inactivation) of the C1 muteins. The latter measures inactivation of the C1 inhibitor muteins by non-target proteases. This procedure is also described by Eldering et al., 1988, in J. of Biological Chem., 263: 11776. Modifications of these methods are also known in the art.
Using similar approaches, the non-target protease sensitivity of the C1 inhibitor muteins may be determined. Numerous assays may be employed that measure the amount of intact C1 inhibitor mutein, or fragments that are derived from the muteins, remaining after exposure to protease. […] A solid phase assay is preferred whereby C1 inhibitor muteins are reacted with non-target protease bound to a solid matrix and the amount of proteolysis of the muteins measured by determining the amount of intact mutein remaining, or preferably by detecting fragments of the mutein.
An exemplary non-target protease that cleaves C1 is neutrophil elastase. Thus, this enzyme may be coupled to CNBr treated Sepharose 4B, and incubated with a C1 inhibitor mutein, and the presence of proteolytically cleaved C1 mutein monitored using a number of techniques. […] Subsequently, the amount of bound cleaved C1 inhibitor can be determined using a second radiolabelled antibody that recognizes the cleaved molecule. […]
Consider B1, for which the susceptibility to inactivation result is listed as “significantly reduced susceptibility to inactivation”.

Consider B2, for which the susceptibility to inactivation result was “significantly reduced susceptibility to inactivation”.

The next test has as its system C1s. In words: radioimmune assay of complex formation of C1 inhibitor muteins with solid phase C1s. The class given is binding. The conditions noted are these: muteins altered only at P3 (position 442, substituted for Val), FIG. 3.
Description: as §1
Generally, inhibitor activity of C1 muteins may be determined by measuring complex formation between the C1 inhibitor and a substrate. The preferred substrates are, of course, C1s, Kallikrein, B-12a, and plasmin. The C1 inhibitor, or C1 inhibitor muteins, inhibit the protease activity of the substrate by forming a covalent bond with the substrate. These molecules were purified by techniques known in the art, or as described by Liebermann, H., etal., 1984, J. Mol. Biol., 177: 531 and Nuijens, J.,et al., 1987, Immunology, 61: 387.
The preferred assay is a radioimmune assay based on the observation that functional C1 inhibitor muteins bind to activated target substrate, such as C1s. The assay can be performed in several ways, but preferably purified activated C1s is coupled to a solid matrix, preferably Sepharose 4B via cyanogen bromide as is known in the art. Coupled C1s is incubated in an appropriately buffered solution containing, if desired, a small amount of detergent, preferably Tween-20. The latter is used at a concentration of about 0.1% (w/v). The capacity of the C1 inhibitor muteins to complex with the target substrate can be detected using anti-C1 inhibitor mutein antibody. Alternatively, a radiolabelled second antibody can be used to detect the bound first antibody. The antibody may be polyclonal or monoclonal and is incubated for a sufficient time to permit detectible binding of the antibody to the C1 inhibitor to occur. After the appropriate washing steps are conducted whereby non-specifically bound radiolabelled antibody is separated from antibody bound to C1 inhibitor muteins, the amount of radioactivity associated with the latter is determined. In this way, and incorporating the appropriate controls in the assay scheme, the inhibitory capacity of the C1 muteins is determined.
The general procedures for determining both the inhibitory or non-target protease sensitivity of the C1 inhibitor muteins are shown in FIG. 2. The procedures involving C1s will be described briefly, the procedures for the other substrates is similar with modifications as noted by Eldering, 1988, J. Biological Chem., 263: 11776, and as shown by Nuijens et al., above.
As mentioned above, the radioimmune assay to determine the C1 inhibitor activity of the various muteins is based on the observation that functional C1 inhibitor mutein will bind to activated C1s. Thus, purified activated C1s is coupled to CNBr Sepharose 4B and suspended in phosphate-buffered saline, pH 7.4 10 mM EDTA, and 0.1% (w/v) Tween-20. Next, 0.3 ml of this mixture containing 1.5 μg of activated C1s is incubated with various dilutions of the C1 inhibitor muteins for 5 hours. The Sepharose 4B beads are collected, extensively washed, and complexed C1 inhibitor mutein incubated (>4hours) with ^125 I-polyclonal anti-C1 antibody. The antibody is described by Hack, et al., above. The Sepharose beads are washed, and bound radioactivity determined using a LKB 1260 multigamma II gamma counter.
Turning to B3, the “complex formation (inhibitory activity), order among P3 muteins” value (“complex formation (inhibitory activity)” for short) was “Arg=Gly<Ala<Leu<wild-type=Thr”.

On to B4, for which the “complex formation (inhibitory activity)” value was “Arg=Gly<Ala<Leu<wild-type=Thr”.

For B5, the “complex formation (inhibitory activity)” value is listed as “Arg=Gly<Ala<Leu<wild-type=Thr”.

On to B6, for which the “complex formation (inhibitory activity)” value is recorded as “Arg=Gly<Ala<Leu<wild-type=Thr”.

Turning to B7, the “complex formation (inhibitory activity)” value is listed as “Arg=Gly<Ala<Leu<wild-type=Thr”.

For the molecule B8, the “complex formation (inhibitory activity)” value is on record as “Arg=Gly<Ala<Leu<wild-type=Thr”.
